The subject of data set [1] is HER2-positive model (SKBR3 breast tumor model). The following applies: in vivo. The source says: This is especially critical for breast cancer tumors in situ in the thorax, since the contrast agent ^99mTc-HPArk2 of the present invention is more advantageous in imaging breast cancer lesions in situ.
The specific difference of in vivo pharmacokinetics between the present invention and the radiopharmaceutical disclosed in Patent No. CN 109045313 A is shown in FIG. 11. FIG. 11 illustrates the uptake in tumor and comparison of data corresponding to the images in FIG. 10. […] FIG. 11 panel B illustrates the results of calculations from FIG. 11 panel A. The uptakes in tumor and the organs were compared and analyzed. […] As is also seen in FIG. 10, a smaller tumor was visualized by ^99mTc-HPArk2 imaging, and the imaging effect is guaranteed. […] Therefore, the contrast ratio for imaging is better, and particularly, the low uptake in heart and liver in the chest cavity may facilitate clear imaging of the in-situ tumor of the breast cancer.

The subject of another data set is breast cancer. The data set is classed as in vivo, human patients. Here is the method: SPECT/CT imaging of ^99mTc-HYNIC-PEG4-(Aoc-rk)2 in breast cancer patients: with approval by the Ethics Review Committee of the Peking Union Medical College Hospital and informed consent, 20 female patients with suspected breast cancer by molybdenum target X-ray or ultrasonography were recruited and subjected to SPECT/CT imaging and PET/CT imaging 1 week before surgery. The patients were administered intravenously with 11.1 MBq (0.3 mCi)/kg body weight of ^99mTc-HYNIC-PEG4-(Aoc-rk)2 30 min before SPECT/CT scan, and 5.6 MBq (0.15 mCi)/kg body weight of ^18F-FDG 60 min before PET/CT scan.

On the set-up of data set [2]: species or system NOD SCID mice. The following applies: mouse, in vivo, iv. The method, then:
The biodistribution of ^99mTc-HYNIC-PEG4-(Aoc-rk)2 in tumor-bearing mice: NOD SCID mice bearing SKBR3 tumor were randomized with 4 mice in each group. Each group of mice were injected with different ^99mTc-labeled polypeptides via tail vein, and sacrificed at 30 and 60 min after injection. Samples of blood and major organs were collected, weighed and measured for radiological counting, and the decay-corrected percent injection dose rate per gram of tissue (% ID/g) was calculated. The results of the experiment are shown in FIG. 8, in which the uptake in tumor at 30 min was 3.7% ID/g, and the uptake was low in blood and organs other than kidney.

Data set [3] relates to MCF7 of no HER2 expression. As to the kind of experiment: cell binding assay, MCF7 cells. On the set-up: species or system Human. The method, then: (§1) The rk polypeptide radiopharmaceuticals were sampled for radioactive HPLC analysis. The HPLC was conducted in an Agilent 1260 HPLC system equipped with a YMC-Pack ODS-A analytic column (250× 4.6 mm, I.D. S-5 μm, 12 nm), and a 20-min gradient elution was performed at a flow rate of 1 mL/min, wherein the mobile A phase was deionized water (containing 0.05% TFA) and the mobile B phase was acetonitrile (containing 0.05% TFA). The elution gradients were 90% A and 10% B at beginning, and 30% A and 70% B at 20 min. The labeling rate of ^99mTc-HYNIC-PEG4-(Aoc-rk)2 was >95%, and the radiochemical purity was >98% as measured by HPLC with a Sep-Pak C18 column. The results of a binding affinity assay of HYNIC-PEG4-(Aoc-rk)2 to HER2 are shown in FIG. 3: Human breast cancer cells SKBR3 of high HER2 expression and MCF7 of no HER2 expression were used as experimental samples, and ^99mTc-HYNIC-PEG4-(Aoc-rk)2 was used as a radioactive ligand specifically binding to HER2 receptor. In this cell binding assay, the binding capacities of ^99mTc-HYNIC-PEG4-(Aoc-rk)2 to SKBR3 and MCF7 were measured, with a blocking group treated with excessive HYNIC-PEG4-(Aoc-rk)2 to verify the binding specificity of ^99mTc-HYNIC-PEG4-(Aoc-rk)2 to SKBR3.

The subject of data set [4] is HER2-negative EGFR-positive MDA-MB-468 breast cancer model. As to the kind of experiment: imaging in HER2-negative/EGFR-positive tumor model. The data set is classed as in vivo. The settings on record: FIG. 13. The source says:
Since EGFR and HER2 are members of the same family and have similar structures, they are difficult to be distinguished by targeting molecules. As such, false positives and false negatives are inevitable when detecting tumors.

The test system of data set [5] is SKBR3 of high HER2 expression. As to the kind of experiment: cell binding assay, SKBR3 cells. On the set-up: species or system Human. The method, then:
as §1

The next data set has as its system SKBR3 breast tumor model. On the set-up: species or system NOD SCID mice. The following applies: mouse, in vivo. The method, then: (§2) Thus the polypeptide is suitable for delayed imaging and more beneficial for tumor diagnosis.
SPECT/CT imaging: Different tumor models with similar tumor sizes were selected, administered with 1 mCi ^99mTc-HYNIC-PEG4-(Aoc-rk)2 through tail vein, and subjected to SPECT/CT imaging 0.5 h later. The SPECT images were reconstructed after imaging, fused with the CT image to give 3D images of the mouse, and the tumor lesion was extracted by In VivoScope software for quantitative analysis.
Preparation of ^99mTc-HYNIC-PEG4-(PEG4-rk) 2:500 μL of a mixture containing 5.0 mg of trisodium triphenylphosphine-3,3′, 3″-trisulfonate (TPPTS), 6.5 mg of tricine, 38.5 mg of disodium succinate hexahydrate, 12.7 mg of succinic acid and 50 μg of HYNIC-PEG4-(PEG4-rk)2 was prepared in a 10 mL vial and lyophilized. 1.0-1.5 mL of Na^99mTcO4 solution (10-35 mCi) was added to the lyophilized powder. The vial was incubated in a water bath at 100° C. for 20-25 min, and cooled at room temperature for 10 min after the reaction is completed to give the rk polypeptide radiopharmaceutical. The rk polypeptide radiopharmaceuticals were sampled for radioactive HPLC analysis. The HPLC was conducted in an Agilent 1260 HPLC system equipped with a YMC-Pack ODS-A analytic column (250× 4.6 mm, I.D. S-5 μm, 12 nm), and a 20-min gradient elution was performed at a flow rate of 1 mL/min, wherein the mobile A phase was deionized water (containing 0.05% TFA) and the mobile B phase was acetonitrile (containing 0.05% TFA). The elution gradients were 90% A and 10% B at beginning, and 30% A and 70% B at 20 min. The labeling rate of ^99mTc-HYNIC-PEG4-(PEG4-rk)2 was >95%, and the radiochemical purity was >98% as measured by a Sep-Pak C18 column.

The target in data set [6] is T1, HER2 (Homo sapiens, UniProt P04626). As to the kind of experiment: HER2 binding specificity detection at protein and cell level. The following applies: protein and cellular levels, FIG. 12.
The target of data set [7] is T1, HER2. As to the kind of experiment: correlation between uptake in tumor and HER2 expression level in tumor models. More on the design: tumor cells with different HER2 expression levels, including human breast cancer cell lines SKBR3, MCF7 and MDA-MB-468; endogenous in cells; host or cells: SKBR3, MCF7, MDA-MB-468, HT29, BxPC3 human tumour cells as xenografts in mice. The format is in vivo, mouse. The settings on record: SKBR3 (high), HT29 (moderate), BxPC3 (low HER2) tumor models.
Text: as §2
Correlation between uptake of ^99mTc-HYNIC-PEG4-(Aoc-rk)2 in tumor and HER2 expression level: tumor cells with different HER2 expression levels, including human breast cancer cell lines SKBR3, MCF7 and MDA-MB-468, human colorectal cancer cell line HT29 and human pancreatic cancer cell line BxPC3, were selected and subjected to flow cytometry for quantitative analysis of HER2 expression in cells. Then the tumor models of the cells were subjected to SPECT/CT imaging, and the uptake in tumor was quantitatively analyzed. Finally, the correlation between HER2 expression and the uptake in tumor was investigated.
Flow cytometry: The cells were digested using 0.25% EDTA/pancreatin, blocked for 15 min, centrifuged, washed with PBS, and divided into a treatment group and a control group. […] The two groups were incubated for 0.5 h in the dark at 4° C., washed for 3 times using cold PBS, and analyzed on a flow cytometer. The mean fluorescence intensity (MFI) of the bound antibody on each cell was calculated through a standard flow cytometry curve. […]
Analysis of correlation between HER2 expression level and uptake in tumor: the linear relationship between HER2 expression level (MFI) and uptake in tumor (% ID/g) was plotted using prism 7.0 software, and the R^2 value was calculated.

A further data set can be described thus: water solubility. The data set is classed as physicochemical. The following applies: compared with refvffly polypeptide.

SMILES strings stand for the structures.

For the compound `CC(C)C[C@@H](NC(=O)[C@@H](CCCNC(=N)N)NC(=O)[C@@H](CC(C)C)NC(=O)[C@@H](CCC(=O)O)NC(=O)[C@@H](Cc1c[nH]c2ccccc12)NC(=O)[C@@H](CC(N)=O)NC(=O)[C@@H](CCCNC(=N)N)NC(=O)CCCCCCCNC(=O)CC[C@H](NC(=O)CCOCCOCCOCCOCCNC(=O)c1ccc(NN)nc1)C(=O)NCCCCCCCC(=O)N[C@H](CCCNC(=N)N)C(=O)N[C@H](CC(N)=O)C(=O)N[C@H](Cc1c[nH]c2ccccc12)C(=O)N[C@H](CCC(=O)O)C(=O)N[C@H](CC(C)C)C(=O)N[C@H](CCCNC(=N)N)C(=O)N[C@H](CC(C)C)C(=O)N[C@H](CCCCN)C(=O)O)C(=O)N[C@H](CCCCN)C(=O)O` [^99mTc-HYNIC-PEG4-(Aoc-rk)2, metal not drawn], in [1], the “hepatic uptake (FIG. 10)” value is “lowest”; the “ratios of tumor to normal tissues such as blood, heart, liver, spleen, intestine and stomach” value is “relatively higher”; the “uptake in blood, heart, liver, spleen, intestine, stomach, bone and other tissues” value is listed as “relatively lower”; the “uptake in tumor (biodistribution, FIG. 11)” value is “relatively higher uptake in tumor than those of ^99mTc-HP4-ref and ^99mTc-HP24-ref”. Moreover, in data set [1], the “uptake in tumor (image quantification, FIG. 10)” value is “higher uptake in tumor than that of ^99mTc-HP24-ref, with no significant difference from ^99mTc-HP4-ref” and the “uptake ratio of tumor to liver” value is listed as “highest”. Also, the “patients with lymph node metastasis in whom metastasis was shown” value in the data set with breast cancer (5 of 6 patients) is listed as 83%. The “patients with pathologically diagnosed breast cancer whose tumor was accurately imaged” value in the data set on breast cancer (14 of 15 patients, 11.1 MBq/kg i.v., 30 min before scan) is reported as 93%. For the same compound, the “adverse effects during the clinical trial” value with breast cancer (human, in vivo) was “No adverse effect related to the radiopharmaceutical was found”. The tissue uptake (in general, the percentage of the injected dose found per gram of tissue) at 0.5 h in data set [2] was determined as 3.7 %ID/g. Also, the “binding rate per 10^5 cells” value in data set [3] worked out at 1.14 % per 10^5 cells. For the same compound, the “imaging result in HER2-negative EGFR-positive model” value in data set [4] was “negative result”. Also, the “binding rate per 10^5 cells, blocking group” value in [5] (SKBR3 blocking group treated with excessive HYNIC-PEG4-(Aoc-rk)2) is recorded as 1.24 % per 10^5 cells. For the same compound, the “binding rate per 10^5 cells” value in data set [5] (SKBR3 cells) turned out to be 4.49 % per 10^5 cells. For the same compound, in the data set with SKBR3 breast tumor model, the “tumor visualization in delayed imaging” value was “still clearly visualized”; the “uptake in tumor (SPECT/CT)” value was “clearly visible and significantly higher than that of the monomer”; the “uptake in tumor, Herceptin blocking group” value is “substantially unchanged”; the “uptake in tumor, cold peptide blocking group” value was “significantly reduced uptake in tumor”. Besides, the “whole-body background (SPECT/CT)” value in the data set on SKBR3 breast tumor model is “clean whole-body background”. Further, at HER2 [6], the HER2 specificity entry is “good specificity at both protein and cellular levels”. For the same compound, at HER2 [7], the “relation of uptake to HER2 expression level (SPECT/CT)” value is listed as “linearly related to the expression level of HER2”.
With `CC(C)C[C@@H](NC(=O)[C@@H](CCCNC(=N)N)NC(=O)[C@@H](CC(C)C)NC(=O)[C@@H](CCC(=O)O)NC(=O)[C@@H](Cc1c[nH]c2ccccc12)NC(=O)[C@@H](CC(N)=O)NC(=O)[C@H](N)CCCNC(=N)N)C(=O)N[C@H](CCCCN)C(=O)O` [rk polypeptide, Arg-Asn-Trp-Glu-Leu-Arg-Leu-Lys], the water solubility result in “water solubility” is given as “superior to that of refvffly polypeptide”.

These data come from US12576170B2, “Rk polypeptide radiopharmaceutical targeting HER2 and preparation method thereof” (BEIJING GILUNTIDE PHARMACEUTICAL CO., LTD., priority 2019, dated 2026).
